Assay [1] deals with his-tagged sortilin luminal domain, mutant R163A (human) (UniProt Q99523). Put plainly: SPR (Biacore), mutant immobilised on CM5, GST-pro-dom-NGF 10-50 nM, 1:1 fit. For orientation: Surface plasmon resonance follows binding to a sensor surface in real time, without labels.
In assay [2] the target is his-tagged sortilin luminal domain, mutant F174A (human) (UniProt Q99523). Described as above.
Assay [3] has as its target his-tagged sortilin luminal domain, mutant R166A (human) (UniProt Q99523). Described as above.
Assay [4] deals with his-tagged sortilin luminal domain, mutant F165A (human) (UniProt Q99523). The assay is described as above.
Sequence of his-tagged sortilin luminal domain, mutant F165A (human) (Q99523 other isoform, or with tags, fused parts or gaps F165A F165A limits assumed): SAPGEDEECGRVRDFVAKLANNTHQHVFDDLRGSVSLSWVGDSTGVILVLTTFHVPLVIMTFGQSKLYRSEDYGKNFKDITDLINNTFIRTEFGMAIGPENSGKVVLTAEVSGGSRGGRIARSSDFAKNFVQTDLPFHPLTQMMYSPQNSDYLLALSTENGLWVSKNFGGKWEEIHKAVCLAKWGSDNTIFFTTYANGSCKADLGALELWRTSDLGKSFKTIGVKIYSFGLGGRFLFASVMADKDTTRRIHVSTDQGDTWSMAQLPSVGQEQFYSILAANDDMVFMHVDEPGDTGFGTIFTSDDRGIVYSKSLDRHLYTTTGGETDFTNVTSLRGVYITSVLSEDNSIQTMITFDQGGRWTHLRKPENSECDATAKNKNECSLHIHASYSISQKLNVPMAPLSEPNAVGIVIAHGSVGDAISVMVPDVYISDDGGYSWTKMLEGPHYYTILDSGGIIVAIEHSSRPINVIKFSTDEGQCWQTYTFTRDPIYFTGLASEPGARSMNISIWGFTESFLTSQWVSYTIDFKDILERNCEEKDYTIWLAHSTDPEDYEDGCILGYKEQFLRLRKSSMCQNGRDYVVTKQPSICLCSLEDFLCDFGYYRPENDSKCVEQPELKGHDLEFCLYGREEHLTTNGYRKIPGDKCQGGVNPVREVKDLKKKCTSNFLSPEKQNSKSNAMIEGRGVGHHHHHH
Assay [5] deals with his-tagged sortilin luminal domain, mutant K172A (human) (UniProt Q99523). The description is as above.
Sequence of his-tagged sortilin luminal domain, mutant K172A (human) (Q99523 other isoform, or with tags, fused parts or gaps K172A K172A limits assumed): as the sequence (Q99523 other isoform, or with tags, fused parts or gaps F165A F165A limits assumed) above, with A121F, K128A counted along it
In assay [6] the target is his-tagged sortilin luminal domain, mutant F170A (human) (UniProt Q99523). Described as above.
Sequence of his-tagged sortilin luminal domain, mutant F170A (human) (Q99523 other isoform, or with tags, fused parts or gaps F170A F170A limits assumed): as the sequence (Q99523 other isoform, or with tags, fused parts or gaps F165A F165A limits assumed) above, with A121F, F126A counted along it
Assay [7] concerns the target his-tagged sortilin luminal domain, mutant R160A (human) (UniProt Q99523). The description is as above.
Assay [8] deals with purified human Sortilin extracellular domain (produced in stably transfected CHO cells) (human) (UniProt Q99523). Put plainly: SPR (Biacore) competition, inhibitor prebound, then coinjected with 200 nM proNGF over immobilised Sortilin.
Sequence of purified human Sortilin extracellular domain (produced in stably transfected CHO cells) (human) (Q99523 78-755 V650M limits assumed): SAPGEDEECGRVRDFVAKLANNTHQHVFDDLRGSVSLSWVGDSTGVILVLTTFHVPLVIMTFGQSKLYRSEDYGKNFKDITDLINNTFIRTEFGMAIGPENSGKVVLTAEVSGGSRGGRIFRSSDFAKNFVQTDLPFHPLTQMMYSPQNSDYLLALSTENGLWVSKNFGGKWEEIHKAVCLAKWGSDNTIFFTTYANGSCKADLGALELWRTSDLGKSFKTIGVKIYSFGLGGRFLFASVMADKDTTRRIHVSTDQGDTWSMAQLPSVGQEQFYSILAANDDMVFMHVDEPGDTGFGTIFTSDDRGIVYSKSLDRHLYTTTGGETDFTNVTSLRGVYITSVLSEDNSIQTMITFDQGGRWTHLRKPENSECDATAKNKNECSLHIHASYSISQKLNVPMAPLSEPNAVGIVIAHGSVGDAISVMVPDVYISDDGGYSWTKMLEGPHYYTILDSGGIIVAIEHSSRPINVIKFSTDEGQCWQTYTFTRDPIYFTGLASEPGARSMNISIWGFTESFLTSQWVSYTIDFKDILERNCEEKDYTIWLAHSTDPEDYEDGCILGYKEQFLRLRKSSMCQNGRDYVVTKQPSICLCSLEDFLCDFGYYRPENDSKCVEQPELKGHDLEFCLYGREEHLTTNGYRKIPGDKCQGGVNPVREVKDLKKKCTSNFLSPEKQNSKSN
Assay [9] shares this target. In words: SPR (Biacore), 25-500 nM propeptide over immobilised Sortilin extracellular domain.
For assay [10], the target named is T1, recombinant his-S-tagged pro-domain of human BDNF (residues Ala1-Arg110), from pET-30 Xa/LIC, E. coli (human) (UniProt P23560).
T1 sequence: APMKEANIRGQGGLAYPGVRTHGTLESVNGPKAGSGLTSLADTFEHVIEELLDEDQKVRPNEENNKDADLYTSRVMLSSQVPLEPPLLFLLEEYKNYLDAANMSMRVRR
In words: SPR (Biacore 2000), 390 nM Sortilin over immobilised pro-domain (˜300 fmol/mm2).

The values below come from US20150023971A1.

For orientation: Kd means the free concentration of one partner at which half of the binding sites on the other are occupied at equilibrium, for simple one-to-one binding. By kon is commonly meant a measure of how fast the partners come together. A low value points to slower complex formation.

Sequence of his-tagged sortilin luminal domain, mutant R160A (human) (Q99523 other isoform, or with tags, fused parts or gaps R160A R160A limits assumed): as the sequence (Q99523 other isoform, or with tags, fused parts or gaps F165A F165A limits assumed) above, with R116A, A121F counted along it
Sequence of his-tagged sortilin luminal domain, mutant F174A (human) (Q99523 other isoform, or with tags, fused parts or gaps F174A F174A limits assumed): as the sequence (Q99523 other isoform, or with tags, fused parts or gaps F165A F165A limits assumed) above, with A121F, F130A counted along it
Sequence of his-tagged sortilin luminal domain, mutant R163A (human) (Q99523 other isoform, or with tags, fused parts or gaps R163A R163A limits assumed): as the sequence (Q99523 other isoform, or with tags, fused parts or gaps F165A F165A limits assumed) above, with R119A, A121F counted along it
Sequence of his-tagged sortilin luminal domain, mutant R166A (human) (Q99523 other isoform, or with tags, fused parts or gaps R166A R166A limits assumed): as the sequence (Q99523 other isoform, or with tags, fused parts or gaps F165A F165A limits assumed) above, with A121F, R122A counted along it
Sequence of recombinant human Sortilin ectodomain with C-terminal poly-histidine tag (pCEP-Pu, EBNA293/HEK293 cells), ending at Ser725 (Q99523 other isoform, or with tags, fused parts or gaps limits assumed): as the sequence (Q99523 other isoform, or with tags, fused parts or gaps F165A F165A limits assumed) above, with A121F counted along it

With “GST-NGF-pro-domain fusion protein (Nykjaer et al., Nature 2004) (from UniProt P01138 19-121)”, the Kd was 2.7 nM in assay [1]; 4.27 nM in [2]; 4.38 nM in assay [3]; 3.86 nM in assay [4]; 3.91 nM in assay [5]; 5.59 nM in [6]. The same substance had a dissociation constant Kd in assay [7] of 1.89 nM. For the same substance, in [7], the kon came to 147000 M⁻¹ s⁻¹.
Substance “human NGF-propeptide expressed in E. coli” displayed a percent inhibition of proNGF binding to Sortilin in [8] of 85%. The Kd in [9] turned out to be 8 nM.
With “recombinant human Sortilin ectodomain with C-terminal poly-histidine tag (pCEP-Pu, EBNA293/HEK293 cells), ending at Ser725 (from UniProt Q99523 78-755) (receptor)”, the response (RU) in assay [10] is 300 RU.
